The values below come from PMC2710508.

Experiment [1] addresses F-actin from chicken pectoral skeletal muscle (chicken) (UniProt P68139). In words: differential scanning calorimetry; tropomyosin 15 µM and TnT 70–170 18 µM with phalloidin (36 µM) stabilized F-actin (24 µM), 100 mM NaCl, 10 mM Hepes pH 7.0, 2 mM MgCl2, 1 mM DTT; three heating scans at 1°C/min; peak of unfolding/dissociation of actin-bound tropomyosin.
The target is the same in experiment [2]. In words: co-sedimentation; tropomyosin 0.1–10 µM with 0.12–12 µM troponin T 70–170 (1.2× molar excess) and 5 µM F-actin, 20°C, 250 mM NaCl, 10 mM TrisHCl pH 7.5, 2 mM MgCl2, 0.5 mM DTT; pellets and supernatants by SDS-PAGE and densitometry; apparent constant (Kapp) and Hill coefficient from a fit to the Hill equation.
Experiment [3] has as its target F-actin (UniProt P68133). The experiment is described as follows: given as Ka. The following applies: cited from earlier work.

In experiment [1], “P5→P3 tropomyosin (residues 165–188 of P5 replace residues 88–111 of P3) (from UniProt P04692 1-284) (natural protein)” yielded a DSC TM of dissociation from F-actin (TM3) of 37.6 °C and a DSC ΔΔH (with minus without F-actin) of 157 kJ/mol. In experiment [2], the Ka stood at 1.33e+06 M⁻¹.

Turning to tropomyosin (from UniProt P09493), the association constant (Ka) in experiment [3] is 400 µM.
